biological target: HLA-DR2 (DRB1*1501) on antigen presenting cells (MGAR, L466) (human); test: cell-based or functional assay

Row | Binder | Inhibition of IL-2 production (%), Hy1B
1 | AAEKYAAYAAAAAAA [synthetic peptide #55] | 30%
2 | AKKEYAAAAAAAAAA [synthetic peptide #37] | 5%
3 | EAAKYAAYKAAAAAA [synthetic peptide #85] | 25%
4 | EKKAYAAAAAAAAAA [synthetic peptide #41] | 7%
5 | AAKEYAAYKAAAAAA [synthetic peptide #84] | 42%
6 | AKEAYAAAAAAAAAA [synthetic peptide #39] | 32%
7 | EAEAYAAYKAAAAAA [synthetic peptide #88] | 55%
8 | EAKEYAAYAAAAAAA [synthetic peptide #74] | 22%
9 | AEAKYAAYKAAAAAA [synthetic peptide #79] | 50%
10 | EKEAYAAYAAAAAAA [synthetic peptide #73] | 23%
11 | AKEEYAAYKAAAAAA [synthetic peptide #82] | 47%
12 | EAKAYAAYKAAAAAA [synthetic peptide #86] | 29%
13 | EAAEYAAYKAAAAAA [synthetic peptide #89] | 41%
14 | EKAAYAAYKAAAAAA [synthetic peptide #87] | 40%
15 | AAEKYEAYAAAAAAA [synthetic peptide #69] | 45%
16 | AEKKYAAYAAAAAAA [synthetic peptide #54] | 38%
17 | EKAAYAAAAAAAAAA [synthetic peptide #44] | 0%
18 | EKAEYAAYAAAAAAA [synthetic peptide #72] | 39%
19 | AEAKYAAYAAAAAAA [synthetic peptide #60] | 0%
20 | AKEKYAAYAAAAAAA [synthetic peptide #63] | 29%
21 | AKEEYAAYAAAAAAA [synthetic peptide #62] | 22%
22 | AAKAYEAYAAAAAAA [synthetic peptide #65] | 22%
23 | EAKAYAAYAAAAAAA [synthetic peptide #75] | 19%
24 | EKEAAAAYAAAAAAA [synthetic peptide #46] | 0%

Further lines, results first:

Row | Inhibition of IL-2 production (%), Hy1B | Binder
25 | 16% | AEEKYAAYAAAAAAA [synthetic peptide #56]
26 | 25% | EAEKYAAYAAAAAAA [synthetic peptide #71]
27 | 52% | AAAEYAAYKAAAAAA [synthetic peptide #76]
28 | 16% | AAKEYAAYAAAAAAA [synthetic peptide #58]
29 | 27% | AKAEAAAYAAAAAAA [synthetic peptide #48]
30 | 59% | AKEAYAAYKAAAAAA [synthetic peptide #78]
31 | 41% | AEAKYEAYAAAAAAA [synthetic peptide #67]
32 | 36% | AEKAAAAYAAAAAAA [synthetic peptide #49]
33 | 61% | AAEKYAAYKAAAAAA [synthetic peptide #77]
34 | 13% | KEKAAAAYAAAAAAA [synthetic peptide #47]
35 | 22% | AEKEYAAAAAAAAAA [synthetic peptide #40]
36 | 17% | AKEEYAAAAAAAAAA [synthetic peptide #38]
37 | 28% | AKAEYAAYKAAAAAA [synthetic peptide #81]
38 | 0% | AKEAYAAYAAAAAAA [synthetic peptide #57]
39 | 29% | AKAEYAAYAAAAAAA [synthetic peptide #59]
40 | 41% | AAKKYEAYAAAAAAA [synthetic peptide #68]
41 | 30% | AEEAYAAYKAAAAAA [synthetic peptide #80]
42 | 43% | AEEKYAAYKAAAAAA [synthetic peptide #83]

biological target: T1, soluble recombinant HLA-DR2 molecules (MHC class II HLA-DR2 protein) (human); test: competition ELISA on soluble HLA-DR2; competitor biotinylated Cop 1 (1.5 µM)
T1 construct: Soluble, empty protein from Drosophila S2 cells, captured on plates by antibody LB3.1; also called MHC class II DR2 protein; recombinant HLA-DR2 protein

Row | Binder | IC50
43 | AAEKYAAYAAAAAAA [synthetic peptide #55] | > 1000 µM
44 | AKKEYAAAAAAAAAA [synthetic peptide #37] | > 1000 µM
45 | EAAKYAAYKAAAAAA [synthetic peptide #85] | > 1000 µM
46 | EKKAYAAAAAAAAAA [synthetic peptide #41] | > 1000 µM
47 | AAKEYAAYKAAAAAA [synthetic peptide #84] | > 1000 µM
48 | AKEAYAAAAAAAAAA [synthetic peptide #39] | > 1000 µM
49 | EAEAYAAYKAAAAAA [synthetic peptide #88] | > 1000 µM
50 | EAKEYAAYAAAAAAA [synthetic peptide #74] | > 1000 µM
51 | AEAKYAAYKAAAAAA [synthetic peptide #79] | > 1000 µM
52 | EKEAYAAYAAAAAAA [synthetic peptide #73] | > 1000 µM
53 | AKEEYAAYKAAAAAA [synthetic peptide #82] | > 1000 µM
54 | EAKAYAAYKAAAAAA [synthetic peptide #86] | > 1000 µM
55 | EAAEYAAYKAAAAAA [synthetic peptide #89] | > 1000 µM
56 | EKAAYAAYKAAAAAA [synthetic peptide #87] | > 1000 µM
57 | AAEKYEAYAAAAAAA [synthetic peptide #69] | > 1000 µM
58 | AEKKYAAYAAAAAAA [synthetic peptide #54] | > 1000 µM
59 | EKAAYAAAAAAAAAA [synthetic peptide #44] | > 1000 µM
60 | EKAEYAAYAAAAAAA [synthetic peptide #72] | > 1000 µM
61 | AEAKYAAYAAAAAAA [synthetic peptide #60] | > 1000 µM
62 | AKEKYAAYAAAAAAA [synthetic peptide #63] | > 1000 µM
63 | AKEEYAAYAAAAAAA [synthetic peptide #62] | > 1000 µM
64 | AAKAYEAYAAAAAAA [synthetic peptide #65] | > 1000 µM
65 | EAKAYAAYAAAAAAA [synthetic peptide #75] | > 1000 µM
66 | EKEAAAAYAAAAAAA [synthetic peptide #46] | > 1000 µM

Further lines, results first:

Row | IC50 | Binder
67 | > 1000 µM | AEEKYAAYAAAAAAA [synthetic peptide #56]
68 | > 1000 µM | EAEKYAAYAAAAAAA [synthetic peptide #71]
69 | > 1000 µM | AAAEYAAYKAAAAAA [synthetic peptide #76]
70 | > 1000 µM | AAKEYAAYAAAAAAA [synthetic peptide #58]
71 | > 1000 µM | AKAEAAAYAAAAAAA [synthetic peptide #48]
72 | > 1000 µM | AKEAYAAYKAAAAAA [synthetic peptide #78]
73 | > 1000 µM | AEAKYEAYAAAAAAA [synthetic peptide #67]
74 | > 1000 µM | AEKAAAAYAAAAAAA [synthetic peptide #49]
75 | > 1000 µM | AAEKYAAYKAAAAAA [synthetic peptide #77]
76 | > 1000 µM | KEKAAAAYAAAAAAA [synthetic peptide #47]
77 | > 1000 µM | AEKEYAAAAAAAAAA [synthetic peptide #40]
78 | > 1000 µM | AKEEYAAAAAAAAAA [synthetic peptide #38]
79 | > 1000 µM | AKAEYAAYKAAAAAA [synthetic peptide #81]
80 | > 1000 µM | AKEAYAAYAAAAAAA [synthetic peptide #57]
81 | > 1000 µM | AKAEYAAYAAAAAAA [synthetic peptide #59]
82 | > 1000 µM | AAKKYEAYAAAAAAA [synthetic peptide #68]
83 | > 1000 µM | AEEAYAAYKAAAAAA [synthetic peptide #80]
84 | > 1000 µM | AEEKYAAYKAAAAAA [synthetic peptide #83]

— US20060020109A1 (Harvard, published 2006)
